Measurements as given in patent US20210077575A1 (CEDARS SINAI MEDICAL CENTER, published 2021).

Target: T1, HER3 (human, UniProt P21860 20-1342)
T1 construct: whole, on cells; Endogenous receptor on tumour cell lines; also called ErbB3; Human ErbB3/HER3
Assay: confocal immunofluorescence, SK-MEL-2 cells treated with HerPBK10-GFPD10 nanoparticles, 0 minutes
Experimental: The cells were counterstained using DAPI to stain the nucleus and rhodamine phalloidin to stain actin.
Images were taken after 0, 15, 30, 60, and 120 minutes using confocal microscopy.

T1 sequence (P21860 20-1342): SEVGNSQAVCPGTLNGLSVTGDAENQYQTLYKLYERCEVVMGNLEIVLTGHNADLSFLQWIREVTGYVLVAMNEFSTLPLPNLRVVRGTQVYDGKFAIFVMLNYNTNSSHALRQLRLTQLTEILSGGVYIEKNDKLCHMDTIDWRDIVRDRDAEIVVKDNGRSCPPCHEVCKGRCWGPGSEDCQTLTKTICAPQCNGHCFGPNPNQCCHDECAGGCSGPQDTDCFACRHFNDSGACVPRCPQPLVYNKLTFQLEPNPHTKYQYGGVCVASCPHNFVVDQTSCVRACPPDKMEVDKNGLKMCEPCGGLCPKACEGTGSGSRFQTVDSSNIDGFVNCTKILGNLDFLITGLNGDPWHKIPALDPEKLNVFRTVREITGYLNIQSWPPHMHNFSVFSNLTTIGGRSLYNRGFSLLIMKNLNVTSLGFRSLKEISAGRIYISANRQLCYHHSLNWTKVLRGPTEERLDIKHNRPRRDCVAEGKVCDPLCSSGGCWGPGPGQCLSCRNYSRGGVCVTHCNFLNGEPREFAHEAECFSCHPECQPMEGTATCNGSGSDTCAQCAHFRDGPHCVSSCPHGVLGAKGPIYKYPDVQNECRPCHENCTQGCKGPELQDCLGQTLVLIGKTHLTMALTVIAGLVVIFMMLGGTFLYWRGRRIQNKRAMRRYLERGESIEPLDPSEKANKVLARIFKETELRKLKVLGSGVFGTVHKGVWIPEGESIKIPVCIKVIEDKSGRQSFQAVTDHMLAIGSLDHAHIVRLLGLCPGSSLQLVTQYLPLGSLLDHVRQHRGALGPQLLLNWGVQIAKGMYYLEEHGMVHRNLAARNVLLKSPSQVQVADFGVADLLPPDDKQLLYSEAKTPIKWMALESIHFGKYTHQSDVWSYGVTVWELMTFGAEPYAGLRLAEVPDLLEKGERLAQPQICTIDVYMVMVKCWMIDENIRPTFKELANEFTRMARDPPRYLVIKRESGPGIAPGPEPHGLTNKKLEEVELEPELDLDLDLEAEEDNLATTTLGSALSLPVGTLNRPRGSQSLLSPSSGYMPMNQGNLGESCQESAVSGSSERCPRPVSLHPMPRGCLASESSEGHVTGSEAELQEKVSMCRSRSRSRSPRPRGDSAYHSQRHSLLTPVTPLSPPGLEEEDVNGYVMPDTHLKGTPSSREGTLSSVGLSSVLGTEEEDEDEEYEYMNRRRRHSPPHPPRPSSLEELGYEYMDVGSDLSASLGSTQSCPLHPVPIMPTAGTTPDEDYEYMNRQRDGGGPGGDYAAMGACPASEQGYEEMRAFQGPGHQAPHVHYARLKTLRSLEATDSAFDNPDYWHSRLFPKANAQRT

B1: HerPBK10 carrier polypeptide comprising a Her cell-targeting segment, a penton base (PB) segment, a decalysine (K10) binding segment, and an N-terminal … (other)
chain: MRGSHHHHHHGMASMTGGQQMGRDLYDDDDKDRWGSELLPPQLKEMKSQESAAGSKLVLRCETSSEYSSLRFKWFKNGNELNRKNKPQNIKIQKKPGKSELRINKASLADSGEYMCKVISKLGNDSASANIAIVESNEIITGMPASTEGAYVSSESPIRISVSTEGANTSSSTSTSTTGTSHLVKCAEKEKTFCVNGGECFMVKDLSNPSRYLCKCQPGFTGARCTENVPMKVQNQEKAEELYGGSGGSRSMRRAAMYEEGPPPSYESVVSAAPVAAALGSPFDAPLDPPFVPPRYLRPTGGRNSIRYSELAPLFDTTRVYLVDNKSTDVASLNYQNDHSNFLTTVIQNNDYSPGEASTQTINLDDRSHWGGDLKTILHTNMPNVNEFMFTNKFKARVMVSRLPTKDNQVELKYEWVEFTLPEGNYSETMTIDLMNNAIVEHYLKVGRQNGVLESDIGVKFDTRNFRLGFDPVTGLVMPGVYTNEAFHPDIILLPGCGVDFTHSRLSNLLGIRKRQPFQEGFRITYDDLEGGNIPALLDVDAYQASLKDDTEQGGGGAGGSNSSGSGAEENSNAAAAAMQPVEDMNDHAIRGDTFATRAEEKRAEAEAAAEAAAPAAQPEVEKPQKKPVIKPLTEDSKKRSYNLISNDSTFTQYRSWYLAYNYGDPQTGIRSWTLLCTPDVTCGSEQVYWSLPDMMQDPVTFRSTRQISNFPVVGAELLPVHSKSFYNDQAVYSQLIRQFTSLTHVFNRFPENQILARPPAPTITTVSENVPALTDHGTLPLRNSIGGVQRVTITDARRRTCPYVYKALGIVSPRVLSSRTFKKKKKKKKKK
B1: binds.
